# Data reported in patent US20220110936A1, “PHARMACEUTICAL COMPOSITION FOR TREATMENT OF NEURODEGENERATIVE DISEASES OR DISEASES CAUSED BY ABNORMALITY OF RNA BINDING PROTEIN AND APPLICATIONS THEREOF” (Shanghai Institute of Organic Chemistry, Chinese Academy of …, priority 2019, published 2022).
# B1: PARG protein: purified PARG protein (Sigma), poly(ADP-ribose) glycohydrolase (protein, UniProt Q86W56 1-976, looked up)
# Poly(ADP-ribose) …: MNAGPGCEPCTKRPRWGAATTSPAASDARSFPSRQRRVLDPKDAHVQFRVPPSSPACVPGRAGQHRGSATSLVFKQKTITSWMDTKGIKTAESESLDSKENNNTRIESMMSSVQKDNFYQHNVEKLENVSQLSLDKSPTEKSTQYLNQHQTAAMCKWQNEGKHTEQLLESEPQTVTLVPEQFSNANIDRSPQNDDHSDTDSEENRDNQQFLTTVKLANAKQTTEDEQAREAKSHQKCSKSCDPGEDCASCQQDEIDVVPESPLSDVGSEDVGTGPKNDNKLTRQESCLGNSPPFEKESEPESPMDVDNSKNSCQDSEADEETSPGFDEQEDGSSSQTANKPSRFQARDADIEFRKRYSTKGGEVRLHFQFEGGESRTGMNDLNAKLPGNISSLNVECRNSKQHGKKDSKITDHFMRLPKAEDRRKEQWETKHQRTERKIPKYVPPHLSPDKKWLGTPIEEMRRMPRCGIRLPLLRPSANHTVTIRVDLLRAGEVPKPFPTHYKDLWDNKHVKMPCSEQNLYPVEDENGERTAGSRWELIQTALLNKFTRPQNLKDAILKYNVAYSKKWDFTALIDFWDKVLEEAEAQHLYQSILPDMVKIALCLPNICTQPIPLLKQKMNHSITMSQEQIASLLANAFFCTFPRRNAKMKSEYSSYPDINFNRLFEGRSSRKPEKLKTLFCYFRRVTEKKPTGLVTFTRQSLEDFPEWERCEKPLTRLHVTYEGTIEENGQGMLQVDFANRFVGGGVTSAGLVQEEIRFLINPELIISRLFTEVLDHNECLIITGTEQYSEYTGYAETYRWSRSHEDGSERDDWQRRCTEIVAIDALHFRRYLDQFVPEKMRRELNKAYCGFLRPGVSSENLSAVATGNWGCGAFGGDARLKALIQILAAAAAERDVVYFTFGDSELMRDIYSMHIFLTERKLTVGDVYKLLLRYYNEECRNCSTPGPDIKLYPFIYHAVESCAETADHSGQRTGT
# Test system: hnRNP A1
# Experiment: Immunoprecipitation/WB of hnRNP A1-Flag from HeLa cells with PARG added to the IP system
# Type: biochemical, human
# Procedure: The steps of HeLa cell culture and plasmid transfection are as described in Example 1. To increase the level of PARylation in HeLa cells after transfection with the plasmids described in 3.1.1, the cell culture medium was removed before collection, 500 μM hydrogen peroxide (diluted in PBS) was added to the cells followed by incubating for 10 min at 37° C. The stimulated HeLa cells can be used for subsequent experiments.
# Cells treated according to 3.1.2 were lysed with the following lysis buffer: 25 mM Tris-HCl pH 7.4, 150 mM NaCl, 1% NP-40, 1 mM EDTA, 5% glycerol, protease inhibitor (Roche), 20 μM Olaparib (Selleck) and 8 μM ADP-HPD (Millopore). For enrichment of TDP-43 with HA tag, the lysate was added with HA antibody (Mouse anti-HA (Proteintech)) for overnight incubation at 4° C. followed by enrichment of primary antibody-sample complexes with Dynabeads® Protein G beads (Novex) for 2 hours at room temperature; for Flag-tagged hnRNP Al, the lysate was added directly to anti-FLAG® M2 Affinity Gel (Sigma) followed by incubation at 4° C. To ablate the polyribose moiety in vitro, 1μ purified PARG protein (Sigma) was added to a mixture of anti-FLAG® M2 Affinity Gel (Sigma) and cell lysate, and incubated for 1 h at 37° C. After incubation, the product was washed 3-5 times with lysis buffer, and added with 4×LDS sample buffer (Invitrogen) and boiled at 95° C. for subsequent studies. […]
molecule,measurement,setting,value
B1,amount of endogenous TDP-43 protein co-precipitated with hnRNP A1,added to the IP system,significantly reduced
same,PARylation level of hnRNP A1 itself and PARylated proteins that interact with it,"hydrogen peroxide-stimulated HeLa, added to the IP system for 1 h",significantly reduced
